In US20080227700A1, “Compositions and Methods for Treatment of Protein Misfolding and Protein Aggregation Diseases” (priority 2004, published 2008):

How the values were obtained:
[1] = target: beta amyloid (Homo sapiens, UniProt P05067); assay: αB crystallin protein pin array screened for binding to beta amyloid; details: immobilized 8-mer peptide; absorption at 450 nm; assayed 2-5 times
Excerpt: αB Crystallin peptides that bind the target protein beta-amyloid were identified by screening an αB crystallin protein pin array, which provides a systematic method for evaluating interactions between peptides corresponding to residues 1-175 of human αB crystallin and selected target proteins in a parallel and simultaneous manner.
Peptides were synthesized on derivatized polyethylene pins arranged in a microtiter plate format. Each peptide was 8 amino acids in length and consecutive peptides were offset by 2 amino acids. All peptides were covalently bonded to the surface plastic pins. The first immobilized peptide was 1MDIAIHHP8 and the last peptide was 168PAVTAAPK175 for the human αB crystallin.
After synthesis, the pins were pre-coated at room temperature with 2% Bovine Serum Albumin (BSA), 0.1% Tween-20 and 0.1% Sodium azide in 10 mM phosphate buffered saline pH 7.2 (PBS) for 1 hr, and washed three times for 10 mins each with 10 mM PBS. To screen for binding to the peptides, fixed concentrations of the target protein beta amyloid was dissolved in 10 mM PBS, containing 0.05% Tween-20, added to each well and incubated for 1 hr at room temperature. The pin array was washed three times for 10 mins each with 10 mM PBS, containing 0.05% Tween-20. Monoclonal or polyclonal primary antibodies for the target protein beta amyloid was diluted into PBS buffer, added to each well and incubated for 1 hr at room temperature. Subsequently, the pin array was washed three times for 10 mins each with 10 mM PBS containing 0.05% Tween-20. Anti-rabbit horse-radish peroxidase conjugate secondary antibodies was diluted into PBS buffer, added to each well and incubated for 1 hr at room temperature. The pin array was washed three times for 10 mins each with 10 mM PBS containing 0.05% Tween-20. A chromogenic substrate of horse-radish peroxidase 3,3′,5,5′-Tetramethylbenzidine (TMB) (Pharmingen, San Diego, Calif.) which is colorless was added, and the reaction was carried out for 45 min.
The reaction was stopped by adding 6N sulfuric acid, which changes the color from blue to yellow. The absorption at 450 nm was measured by an ELISA reader (BioTek, Winooski, Vt.).
The pin array was regenerated by sonication in a water bath (VWR Aquasonic, West Chester, Pa.) with 100 mM PBS, containing 1% Sodium dodecyl sulfate (SDS) and 0.1% 2-Mercaptoethanol @ 60° C. for 10 mins. Next, the pin array was rinsed three times in deionized water, preheated to 60° C. for 30 secs each time, and shaken in water preheated at 60° C. for 30 min. The pin array was then washed with methanol at 60° C. for 15 secs and air-dried and stored @−20° C. for future use. Each target protein was assayed 2-5 times against the human αB crystallin protein pin array peptides to verify the reproducibility of the results. Peptides numbered 5, 7, 8, 9, 13, 19, 22, 23, 24, 27, 35, 38, 45, 51, 52, 56, 57, 61, 66, 71, 72, and 79 in Table 2 reproducibly tested positive in the protein pin assay.

[2] = target: T1, γD crystallin (Homo sapiens, UniProt P07320); assay: Protein pin array interaction with γD crystallin; type: binding; parameters: purchased; details: unheated γD crystallin; similar peptide sequences with γD crystallin pre-heated at 45° C. for fifteen minutes
T1 sequence (P07320 1-174): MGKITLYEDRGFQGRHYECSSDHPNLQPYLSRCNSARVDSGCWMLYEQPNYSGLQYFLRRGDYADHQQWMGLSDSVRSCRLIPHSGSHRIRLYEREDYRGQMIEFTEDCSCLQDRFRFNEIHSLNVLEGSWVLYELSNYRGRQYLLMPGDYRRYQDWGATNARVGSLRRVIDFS
Excerpt: (§1) Synthesis of Pins, binding and detection of peptides binding to ligand proteins. The αB crystallin protein pin array was used to measure the interaction between peptides and chaperone target proteins including bovine βH crystallin, human γD crystallin, equine alcohol dehydrogenase (ADH) and porcine citrate synthase (CS) as described (FIG. 12). Ghosh and Clark, Protein Sci 14: 684-95, 2005.
(§2) Refer to the methods section for detailed protocols. The absorbance corresponding to the blue coloration in each well was measured at λ=450 nm and plotted against the amino acid sequence of the corresponding peptide in that well (FIGS. 13 and 14). Wells containing peptides that have strong interactions with target proteins are dark blue and wells containing peptides that have weak or no interaction with target proteins are light blue or clear.
(§3) The purity of the target proteins used in the pin array assays, bovine βH crystallin, human γD crystallin, equine alcohol dehydrogenase (ADH) and porcine citrate synthase (CS) were determined to be >90% by SDS-PAGE. In addition, primary antibodies for each target protein were specific to that target protein and consequently contaminating proteins that may bind to the peptides will not be detected. Eighty-four sequential and overlapping peptide fragments corresponding to residues 1-175 of human αB crystallin were synthesized employing a simultaneous peptide synthesis strategy developed by Geysen, called Multipin Peptide Synthesis (Mimotopes, San Diego, Calif.). Geysen, Southeast Asian J Trop Med Public Health 21: 523-33, 1990; Chin et al., J Org Chem 62: 538-539, 1997. Peptides were immobilized on derivatized polyethylene pins arranged in a microtiter ELISA plate format. Each peptide was eight amino acids in length and consecutive peptides were offset by two amino acids. All peptides were bound covalently to the surface of the plastic pins. The first peptide was […] for human αB crystallin.
(§4) Ghosh and Clark, Protein Sci 14: 684-95, 2005. […] The intensity of the blue color in the wells was measured at 450 nm using an ELISA plate-reader (BioTek, Winooski, Vt.). The intensity of the blue color (plotted on the X-axis) was a measure of the interaction between αB crystallin peptides (plotted on the Y-axis) and target proteins. To measure the effect of temperature on the interactions between interactive peptides and the target proteins, the target proteins were heated in a water-bath at 45° C. for fifteen minutes prior to use. Pin arrays are unable to differentiate between monomers, dimers or oligomers of target proteins that exist in solution. Instead, pin arrays are very sensitive detectors of interactions between individual peptides and the entire population (monomers, dimers or oligomers) of specific target proteins that may exist in solution under specific conditions. Each target protein was assayed two to five times. A single pin array was used for all experiments and no change in interactions was observed after more than thirty repetitions. The last three peptides of the protein pin array, 163REEKPAVT170, 165EKPAVTAA172, 167PAVTAAPK174, correspond to the epitope (163REEKPAVTAAPKK175) recognized by the primary antibody for human αB crystallin. A positive reaction is observed for these three peptides in the absence of human αB crystallin as the ligand due to direct binding of the anti-human αB crystallin antibody to these three peptides. The loss of efficiency for the pin array was measured using this assay. The loss of efficiency for the pin array was determined to be <5% by after more than 30 assays.
(§5) The amino acid sequences of each 8-mer human αB crystallin peptide immobilized sequentially on 84 pins in a 96-well ELISA plate format are listed on the Y-axis. […]

[3] = target: T2, equine alcohol dehydrogenase (ADH) (Equus caballus, UniProt P00327); assay: Protein pin array interaction with alcohol dehydrogenase; type: binding; details: ADH as ligand, unheated and pre-heated
T2 construct: purchased
Excerpt: as §1, §2, §3, §4
(§6) The Y-axis lists the amino acid sequences of the 8-mer peptides that are immobilized sequentially in a 96-well format. […]

[4] = target: T3, porcine citrate synthase (CS) (Sus scrofa, UniProt P00889); assay: Protein pin array interaction with citrate synthase; type: binding; details: CS as target protein, unheated and pre-heated
T3 construct: purchased
T3 sequence (P00889 28-464): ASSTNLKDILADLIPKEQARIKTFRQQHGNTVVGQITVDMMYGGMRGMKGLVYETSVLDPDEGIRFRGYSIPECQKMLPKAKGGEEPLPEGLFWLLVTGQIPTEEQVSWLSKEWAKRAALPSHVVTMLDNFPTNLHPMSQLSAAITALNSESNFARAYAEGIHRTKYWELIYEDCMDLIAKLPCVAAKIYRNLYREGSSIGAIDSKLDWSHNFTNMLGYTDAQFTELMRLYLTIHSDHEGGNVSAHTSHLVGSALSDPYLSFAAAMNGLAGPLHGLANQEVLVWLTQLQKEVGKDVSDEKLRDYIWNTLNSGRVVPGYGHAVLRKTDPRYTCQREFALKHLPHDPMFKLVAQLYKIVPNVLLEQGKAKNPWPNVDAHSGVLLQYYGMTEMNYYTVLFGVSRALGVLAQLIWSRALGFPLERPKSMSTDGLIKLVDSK
Excerpt: as §1, §2, §3, §4, §6

[5] = tested on: bovine βH crystallin; assay: Protein pin array interaction with βH crystallin; type: binding; details: unheated βH crystallin; similar maxima with βH crystallin pre-heated at 45° C. for fifteen minutes
Excerpt: as §1, §2, §3, §4, §5

T2 sequence (P00327 whole entry): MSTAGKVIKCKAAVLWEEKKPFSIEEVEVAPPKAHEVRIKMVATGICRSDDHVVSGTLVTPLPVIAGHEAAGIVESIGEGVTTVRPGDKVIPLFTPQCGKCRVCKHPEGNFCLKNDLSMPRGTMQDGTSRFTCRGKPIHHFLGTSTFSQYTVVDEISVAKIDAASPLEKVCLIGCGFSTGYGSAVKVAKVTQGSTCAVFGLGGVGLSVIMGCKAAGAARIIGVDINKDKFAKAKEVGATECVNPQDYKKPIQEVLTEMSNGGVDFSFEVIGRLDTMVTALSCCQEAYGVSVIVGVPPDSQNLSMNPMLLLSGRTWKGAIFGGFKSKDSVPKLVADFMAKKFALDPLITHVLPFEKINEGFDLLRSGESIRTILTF

Sequence | protein pin assay result with target protein beta amyloid [1] | absorbance at λ=450 nm, interaction with γD crystallin [2] | absorbance at λ=450 nm, interaction with ADH [3] | absorbance at λ=450 nm, interaction with CS [4] | absorbance at λ=450 nm, interaction with βH crystallin [5]
DQFFGEHL [Peptide 13] | positive | maximum absorbances | – | – | –
EFHRKYRI [Peptide 59] | – | maximum absorbances | – | – | –
FFGEHLLE [Peptide 14] | – | – | Maximum absorbances | – | –
FHSPSRLF [Peptide 9] | positive | – | – | – | –
FISREFHR [Peptide 57] | positive | – | – | absorbance maxima | Maximum absorbances
FPFHSPSR [Peptide 8] | positive | – | – | absorbance maxima | –
FSVNLDVK [Peptide 38] | positive | maximum absorbances | Maximum absorbances | absorbance maxima | Maximum absorbances
FYLRPPSF [Peptide 24] | positive | maximum absorbances | – | absorbance maxima | Maximum absorbances
GVLTVNGP [Peptide 71] | positive | maximum absorbances | Maximum absorbances | – | Maximum absorbances
HGFISREF [Peptide 56] | positive | maximum absorbances | – | – | –
HGKHEERQ [Peptide 51] | positive | – | – | – | –
IAIHHPWI [Peptide 2] | – | maximum absorbances | – | – | –
KHEERQDE [Peptide 52] | positive | – | – | – | –
KYRIPADV [Peptide 61] | positive | – | – | – | Maximum absorbances
LFPTSTSL [Peptide 19] | positive | – | Maximum absorbances | – | –
LKVKVLGD [Peptide 45] | positive | – | – | – | Maximum absorbances
LRAPSWFD [Peptide 28] | – | – | – | absorbance maxima | –
LRPPSFLR [Peptide 25] | – | – | Maximum absorbances | – | –
LTITSSLS [Peptide 66] | positive | maximum absorbances | Maximum absorbances | absorbance maxima | Maximum absorbances
LTVNGPRK [Peptide 72] | positive | – | – | absorbance maxima | –
PFFPFHSP [Peptide 7] | positive | maximum absorbances | Maximum absorbances | – | –
PPSFLRAP [Peptide 26] | – | – | – | – | Maximum absorbances
RLEKDRFS [Peptide 35] | positive | – | Maximum absorbances | – | Maximum absorbances
RTIPITRE [Peptide 79] | positive | – | Maximum absorbances | absorbance maxima | Maximum absorbances
SFLRAPSW [Peptide 27] | positive | maximum absorbances | – | – | –
SLSPFYLR [Peptide 22] | positive | maximum absorbances | Maximum absorbances | absorbance maxima | –
SPFYLRPP [Peptide 23] | positive | – | – | – | Maximum absorbances
SREFHRKY [Peptide 58] | – | – | Maximum absorbances | – | –
